From patent US20250333506A1 (NEW YORK UNIVERSITY, published 2025)

Experiments:
[1] = molecular target: T1, human Delta1 TCR (Fc fusion protein, Delta1 clone and gamma chain not stated); experiment: bead binding titration, flow cytometry (MFI against antibody concentration)
T1 construct: also called Human Delta1 Fc fusion protein; human delta-1 chain

[2] = molecular target: T2, cynomolgus Gamma/Delta1A TCR-Fc fusion protein (cynomolgus monkey, biotinylated in vitro with recombinant BirA (AviTag)); experiment: bead binding assay: biotinylated TCR-Fc on streptavidin beads, IgG titrated, flow cytometry
T2 construct: First chain = delta, second = gamma; also called Cyno D1; cyno D1; not shown: Fc portion of mouse IgG, then AviTag and His6 tag at the C-terminus; Fc portion of mouse IgG

[3] = molecular target: T3, cell surface-expressed δ1-γ5 TCR on J.RT3-T3.5 Jurkat cells; experiment: flow cytometry titration on the D1/G5 TCR Cell Line (AB Hi), transduced J.RT3-T3.5 Jurkat cells
T3 construct: whole, on cells; also called Delta1 and gamma 5

[4] = molecular target: T4, cell surface-expressed δ1-γ8 TCR on J.RT3-T3.5 Jurkat cells; experiment: flow cytometry titration on the D1/G8 TCR Cell Line (9-2 Hi), transduced J.RT3-T3.5 Jurkat cells
T4 construct: whole, on cells; also called Delta1 and gamma 8

[5] = molecular target: T5, cell surface-expressed δ1-γ9 TCR on J.RT3-T3.5 Jurkat cells; experiment: flow cytometry titration on the D1/G9 TCR Cell Line (JR2 Hi), transduced J.RT3-T3.5 Jurkat cells
T5 construct: whole, on cells; also called Delta1/Gamma9 TCR on the surface; delta1/gamma-9

[6] = molecular target: T6, cell surface-expressed δ1γ2 TCR on J.RT3-T3.5 Jurkat cells; experiment: flow cytometry titration on the D1/G2 TCR Cell Line (9-10 Hi), transduced J.RT3-T3.5 Jurkat cells
T6 construct: whole, on cells; Cells were stained with anti-human reagents; species of the transduced chains is not restated; also called Delta1 and gamma 2

[7] = molecular target: T7, cell surface-expressed δ1γ3 TCR on J.RT3-T3.5 Jurkat cells; experiment: flow cytometry titration on the D1/G3 TCR Cell Line (16-3 Hi), transduced J.RT3-T3.5 Jurkat cells
T7 construct: whole, on cells; also called Delta1 and gamma 3

[8] = molecular target: T8, cell surface-expressed δ1-γ4 TCR on J.RT3-T3.5 Jurkat cells; experiment: flow cytometry titration on the D1/G4 TCR Cell Line (DP10 Hi), transduced J.RT3-T3.5 Jurkat cells
T8 construct: whole, on cells; also called Delta1 and gamma 4; delta1/gamma-4

[9] = molecular target: T1, human Delta1 TCR (Fc fusion protein, …); experiment: bio-layer interferometry (Octet), biotinylated receptor on streptavidin sensor tips, antibody in solution; KD Error 1.14e-012
[10] = molecular target: T9, cynomolgus monkey Delta1 Fc fusion protein (Delta1 clone not stated); experiment: bio-layer interferometry (Octet), biotinylated receptor on streptavidin sensor tips, antibody in solution; KD Error 1.33e-012
T9 construct: also called monkey (cyno) delta-1 chain; monkey Delta1 receptors

[11] = molecular target: T2, cynomolgus Gamma/Delta1A TCR-Fc fusion …; experiment: bead binding assay by the table's title (paragraph 456 gives the same value for Octet BLI, FIG. 22B); apparent KD; apparent KD, IgG format, bead binding assay; measured once

B1: Delta1-39 (antibody, V domains shown)
VH: EVQLVESGGGLVQPGGSLRLSCAASGFTFTANDIHWVRQAPGKGLEWVASIYSSSGYTYYADSVKGRFTISADTSKNTAYLQMNSLRAEDTAVYYCARDPGSYYWYYSGSAYEGYGLDYWGQGTLVTVSS
VL: DIQMTQSPSSLSASVGDRVTITCRASQSVSSAVAWYQQKPGKAPKLLIYAASSLQSGVPSRFSGSRSGTDFTLTISSLQPEDFATYYCQQQSKYPFLITFGQGTKVEIKR
notes: Tested in the human IgG format; also called anti-Delta1-39; Delta-39
EC50 (read off the curve) [1]: ~1 nM
EC50 (read off the curve) [2]: ~2 nM
EC50 (read off the curve) [3]: ~4 nM
EC50 (read off the curve) [4]: ~6 nM
EC50 (read off the curve) [5]: ~10 nM
EC50 (read off the curve) [6]: ~7 nM
EC50 (read off the curve) [7]: ~6 nM
EC50 (read off the curve) [8]: ~9 nM
Kd [9]: 0.231 nM
Kd [10]: 0.285 nM
Kd [11]: 0.28 nM
